Measured values reported in the nanobody polyreactivity screen of Harvey et al. (2022).

Test: yeast display, Sf9 membrane polyspecificity reagent, FACS + sequencing; frameworks hold sequencing errors
How it was run: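 Nanobodies came from a synthetic yeast display library in Saccharomyces cerevisiae BJ5465, induced with galactose for 36–48 hours and stained for 1 hour at 4 °C with 10% biotinylated, detergent-solubilized Sf9 membrane reagent. Cells were enriched on streptavidin microbeads and then FACS-sorted, with low and high (top ~1%) gates set on anti-HA fluorescence for expression and streptavidin fluorescence for reagent binding. Each polyreactivity label reflects the gate a clone came from. Genes were amplified by colony PCR, sequenced by MiSeq 2 × 250 and filtered by CDR length.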

| Sequence | polyreactivity (PSR sort gate) |
| --- | --- |
| QVQHVESGGGLVQAGGSLRLSCAASGSIIPSNVMGWYRQTPGKDRELVAAISNTGSTNYADSVKGRFTISRDNAKNSVYLQMNSLKPEDTAVYYCNADASYGFWSLLDYDYWGQGTQVTVSS | low polyreactivity |
| QVQLVESGGGLVQAGGSLRLSCAASGFTFEVYAMGWYIQAPGKERELVAAITSSGGRTYYADSVKGRFTISRDNAKNTVYLQMNSLKPEDTAVYYCNARSKQPVYPYVQSLNYWGQGTQVTVSS | high polyreactivity |
| QVQLVESGGGLVQAGGSLRLSCAASGRILIWYAMGWYRQAPGKERELVAAINWSGSSTSYADSVKGRFTISRDNAKNTVYLQMNSLKPEDTAVYYCAAGRLTTYTPGNRYYYWGQGTQVTVSS | high polyreactivity |
| QVQLVESGGGLVQAGGSLRLSCAASGSIFKFYTMGWYRQAPGKERELVAAISSSDGSTHYADSVKGRFTISRDNAKNTVYLQMNSLKPEDTAVYYCARRRYSRYSVTRGNYWGQGTQVTVSS | high polyreactivity |
| QVQLVESGGGLVQAGGSLRLSCAASGSIFHPNAMGWYRQAPGKERELVAAISIGGDTYYADSVKGRFTISRDNAKNTVYLQMNSLKPEDTAVYYCAVTYVGHVYEYYYWGQGTQVTVSS | low polyreactivity |
| QVQLVVSGGGLVQAGGSLLLSCAASGFTFYSYAMGWYRQAPGKERELVAGISWSGTRTYYADSVKGRFTISRDNAKNTVYLQMISLKPEDTAVYYCAARGYRYGYGYWGQGTQVTVSS | high polyreactivity |
| QVQLVESGGVFVQAGGTLRLSCAASGITLNGYVMGWYRQAPGKEREFVAVITTRGGSTYYADSVKGRFTISRDNAKNTVYLQMNSLNPEDTAVYYCAARYVREYNYWGQGTQVTVSS | high polyreactivity |
| QVQLVESGGGLVQAGGSLRLSCAASGFTFGYYAMGWYRQAPGKERELVAAITWNGGSTYYADSVKGRFTISRDYAKNTVYLQMNSLKPEDTAVYYCAAVYKYIQRYDYWGQGTQVTVSS | high polyreactivity |
| QVQLVESGGRLVQAGGSLRLSCAASGRIFYNYSMGWYRQAPGKERELVATIRYRGGSTYYADSVKGRFTISRDNAKNTVYLQMNSLKPEDTAVYYCAARFNYNRDYPYYSWGQGTQVNVSS | high polyreactivity |
| QVQLVESGGGLVQAGGSLRLSCAAYGNTFSQYAKGWYRQAPGKERELVATISKSSGSTSYTDSVKGRFTISRDNAKNTVYLQLNSLKPEDSAVYYCNADSSDVYHHLGVLFFSTWYDYWGQGTLVTVSS | low polyreactivity |
| QVQLVESGGGLDQAGGSLRLSCAASGRTFYRYAMGWYRQEPGKERELVATISRSGGSTYYADSVKGRFTISRDNAKNTVYLQMNSLKPEDTAVYYCNAEGYPWGFYTYDYWGQGTQVTVSS | low polyreactivity |
| QVQLVESGGGVVQAGGSLRLSCAASGRIFNWYAMGWYRQAPGKEREFVAAINWNGDSTHYADSVKGRFTISRDNAKNTVYLLMNSLKPEDTAVYYCNARVFVTRSYYWGQGTQVNVSS | low polyreactivity |
| QVQLVESGGGLVQAGGSLRISCAASGRTFQFNVMGWYRQAPGKERELVASIRSGGSTNYADSVKGRFTISRDNAKNTVYLQMNSLKPEDTAVYYCAARVASPYYRYDYWGQGTQVTVSS | low polyreactivity |
| QGQLVESGGGLVQAGGSLRLSCAASGSIFSSNAMGWYRQAPGKQRELVAAIDWDSGSTSYADSVKGRFTISRDNAKNTVYLQMISLKPEDTAVFYCAADEVLSGYYTLDYWGQGTQVTVSS | low polyreactivity |
| QVQLVESGAGLVQAGGSLRLSCATYGITISYYAMVWYGQGPGKVSELVAAISTSGGSTYYADSVKGRFTFSRDNAKNTVYLQMNSLKPEDTAVFYCAAVYTTGGYTGLEYWGQGTQVTVSS | high polyreactivity |
| QVQLVESGGGLVQAGGSLRLSCAASGSIFQPYAMGWYRQAPGKERELVAAISSSGGSTTYADSVKGRFTISRDNAKNTVYLQMNSLKPEDTAVYYCAAQYRYYPEAYGMGYWGQGTQVTVSS | low polyreactivity |
| QVQLVESGGGLVQAGGSLRLSCAASGFIFPWYSMVWSRQAPGKERELVAAISRGGRTNYADSVKGRFTISRDNAKNTVYLQMNSLIPEDTAVYYCAKKYYLSGSRADDSWGQGTQVTVSS | high polyreactivity |
| QVQLVESGGGLVQAGGSLRLSCAASGSTFQSYAMGWYRQAPWKERELVAAITTTGTRTYYADSVKGRFTISRDNAKNTVYLQMNSLKPEDTAVYYCNAQRLQAHRTSRRYGYWGQGTQVTVSS | high polyreactivity |
| QVQLVESVGGLVQAGGSLRLSCTATGSNFGYNAMGSYRQAPGKEREFVAAISWRGGSTYYADSVKGRLTISRDYAKNTVYLQMNSLKPEDTAVYYCAAVPQGSKRGYYYWGQGTQVTVSS | high polyreactivity |
| QVQLVESGGGLVQAGGSLRLSCAASGTTFVKNDMGWYRQAPGKERELVAAISGGSTNYADSVKGRFTISRDNAKNTVYLQMNSLKPEDTAVYYCAAVQWYTSIEGIQPYYYWGQGTQVTVSS | low polyreactivity |
| QVQLVESGGGLVQAGGSLRLSCAASGGIFRFNAMAWYRQAPGKERELVAAINRGGSTDYADSVKGRFTSSRDNAKNTVYLQMNSLKPEDTAVYYCAADYEYRPKTRDGYYWGQGTQVTVSS | low polyreactivity |
| QVQLVESGGGLVQAGGSLRLSCAASGIIFRDYDMGWYRQAPGKERELVAAITWDGGSTYYADSVKGRFTISRDNAKNTVYLQMNSLTPEDTAVYYCAADSRYHYYVGYYYWGQGTQVTVSS | high polyreactivity |

| Sequence | polyreactivity (PSR sort gate) |
| --- | --- |
| QVQLVDSGGGLVQAGGSLRLSCAASGITFSGYDMGWYRQAPWKERELVADITISTGSTYYADSVKGRYTISRDNAKNSVYLQMNSLKPEDTAVYYCAADWTGGFYTWYVIPYDYWGQGTQVTVSS | low polyreactivity |
| QVQLVESGGGLVQAGGSLRLSCAASGFTFYPYTMGWYRQAPGKEREFVAAISWNCGSTYYADSVKGRFTISCDNAKNTVYLQMNSLKPEDTAVYYCAKRSYRSSARELDYWGQGTQVTVSS | low polyreactivity |
| QLQLVESRGGLVQAGGSLRLSCASSGFIFKQNAMGWYRQAPGNERELVAAISVSGGSTYYADSVKGRFTISRDNAKNTVYLQMNSLKPEYSAVYYCNTRDRGDVVTGLDYWGQGTQVTVSS | low polyreactivity |
| QVHLVESGGGLVQAGGSLRLSLAASGSIFHPYAMGWYRQAPGKERELVAAISKSGGNTYYADSVKGRFTISRDNAKNNVYLQMNSLKPVDPEVYYCAALDYWGQGTKVTVSS | low polyreactivity |
| QVQLVESGGGLVQAGGSLRLSCDASGRIFVVYAMGWSRQAPGKERELVAAITGGGRTNYADSVKGRFTISRDNAKNTVYLQMNSLKPEDTAVYYCAAGTRSDARRYYYWGQGTQVTVSS | low polyreactivity |
| QVQLVESGGGLVQAGGSLSLSCAASGRTYYYNAMGWYRQAPGKERELVAAITFSGGTTSYADSEKGRFTISRDNAKNTVYLQMNRLKPEDTEVYYCAARGYWGQGTQVTVSW | high polyreactivity |
| QVQLVESGGGLVQAGVSLRLSCAASGITIKGNAKGWYRQAPGKERELVAAISRRGGNTYYADSVKGRFTISRDNAKNTVYLQMNSLKPEDTAVYYCAAEYNQSFDYWGQGTQVTVSS | low polyreactivity |
| QVQLVESGGGLVQAGGSLRLSCAASGRTFFKYVMGWYRQAPGKERELVAAISYRSGSTYYADSVKGRFTISRDNAKNTVYLQMNSLKPEDTAVYYCAIEPPPVKGDYWGQGTQVTVSS | low polyreactivity |
| QVQLVESGGGLVQAGGSLRLSCAASGIIFDKNAMGWYRQAPGKERELVAVITRGGSTYYADSVKGRFTISRDNAKNTVYLQMNSLKPEDTAVYYCAARYTPGFGYWGQGTQVTVSS | high polyreactivity |
| QVQLVESGGGLVQAGGSLRLSCAASGFTFIKYAMGWSRQAPGNEMEFVAAITRSGTSTYYADSVKGRFTISRDNAKNTVYLQMNSLKPEDTAVYYCAATYPRYYSGEFDYWGQGTLVTVSS | high polyreactivity |
| QVQLVESGGGLDQAGGSLRLSCAASGFTFSYNAMGWYRQAPGKERELVASISWRGGGTYYADSVKGRFTISRDNAKNTVYLQMNSLKPEDTAVYYCNAGLTDYIGDPSEVDYWGQGTQVTVSS | low polyreactivity |
| QVQLVESGGGLVQAGGSLRLSCAACGSTFYAYAMGWYRQAPGKERELVAAIDSGGSTYYADSVKGRFTISRYNAKNTVYLEMNSLKPEDTAVYYCAVRHRYTRAYRGRDYWGQGTQVTVSS | low polyreactivity |
| QVQLVESGGCLVQAGGSLRLSCAASGSIFSAYAMGWYRQAPGKERELVAGITSSGDSTYYADSVKGRFTISRDKAKNTVYLQMNSLKPEDTAVYYCNRVLGGVPFDHWGQGTQVTVSS | low polyreactivity |
| QVQLVESGGGLVQAGGSLRLSCAASGRIFQYNAMGWYRQAPGKESELVAAIRRGGGSTYYADSVKGRFTISRDNAKNTVYLQMNSLKPEDTAVYYCAARRKRVSFYPEYDYWGQGTQVTVSS | low polyreactivity |
| QVQLVESGGGLVQAGGSLRLSCAGSGSIFYQYAMGWYRQAPGKERELVAAISDSGGSTHYADSVKGRFTISRDNAKNTVYLQMNSLKPEDTAVYYCPANLYYQYGGDYWGQGSQVTVSS | low polyreactivity |
| QDQLVESGGGLVQAGGSLRLSCAASGSTIRANAMGWYRQATGKERELVAAITKNGGSTYYADSVKGRFTISRDNAKNTVYLQMNSLKPEDTAVYYCAARRSSRRPPYYYWGQGTQVTVSS | high polyreactivity |
| QVQLVESGGGLVQEGGSLRLSCAASGLISQRNVMGWYRQAPGKERELVARISTSSSGTYYADSVKGRFTISRDNAKNTFYLHMYSLKPEYTAVYYCAVRYRGGAARQIYDYWGQGTQVTVSS | high polyreactivity |
| QVHLVESGGGLVQAGGSLRLSCAASGSIFSSNTMGWYRQATGKERELVAAISWSGGRTRYADSVKGRFTISRDNAKNTVYLQMNSLKPEDNAVYYCNAGTVASTLYDVRTHFDYWGQGTQVTVSS | low polyreactivity |
| QVQHVESGGGLVQAGGSLRLSCAASGIIFPRNAMGRYRQAPGKEREFVAAITLSGGRTYYADSVKGRFTISRDNAKNSVYLQMNSLKPEDTAVYYCAAYGFGPYKGVDYWGQGTQVTVSS | high polyreactivity |
| QVQLVESGGGLVQAGGSLRLTCAASGFIFRSYAMGWYRQAPGKERELVAVISRRGVNTHYADSVKGRFTISRDNAKNTVYLQMNSLKPEDTAVYYCAKGLTALGDYWGQGTQVTVSS | high polyreactivity |
| QVQLQESGGGLVQVGGSLRLSCAASGTIFIYGFLGWNRQAQGKELELVASINLGGITNYADSVKGRFTISRDNAKNTLYLQMISLKTEDTAVYYCAAYVVTGQNYGYWGQGTQVTVSS | low polyreactivity |
